From patent publication US20080069777A1 (CBR INSTITUTE FOR BIOMEDICAL RESEARCH, published 2008)

Tests used:
[1] = target: T1, human wild-type LFA-1 on cells (human, UniProt P20701 26-1170; P05107 23-769); assay: inhibition of ICAM binding to human PBMCs; average of four experiments
T1 construct: also called LFA-1 on human PBMCs

[2] = target: T2, mouse LFA-1 on the EL4 cell line (mouse, UniProt P24063 24-1162; P11835 24-771); assay: binding to EL4 cell line, no treatment
T2 construct: whole, on cells; also called Mouse EL4 Cell line

rabbit LFA-1 on PBMCs = target: T3, rabbit LFA-1 on PBMCs (rabbit, UniProt A0A5F9C4C9 27-1127; A0A5F9CF43 23-747); assay: flow cytometry on PBMCs, no treatment
T3 construct: whole, on cells; also called rabbit PBMCs
Description: Whole blood from healthy animals (rat, sheep, rabbit, dog, rhesus monkey, cynomologus monkey and chimpanzee) were obtained from Valley Biomedical Products and Services, Inc. PBMCs were isolated from whole blood and cultured in low adherent 6-well plates overnight in RPMI 1640 with 10% FBS, 1× Pen/Strep. PBMCs were harvested, washed once with Hanks' Balanced Salt Solution (HBSS) 1×, 20 mM HEPES buffer containing 10 mM EDTA, and then twice with HBS. Cells were resuspended in HBSS at 2×10⁶ cells/ml, 100 μl aliquots per well were added into 96-well plates (Costar round bottom). After spinning down, cell pellets were resuspended in 50 μl activating buffer (HBSS, 10 mM MgCl₂, 2 mM EGTA) or inactivating buffer (HBSS, 2 mM CaCl₂, 2 mM MgCl₂). For certain wells, PMA or DTT was added to a final concentration of 10 ng/ml or 500 μM, respectively. Cells were then incubated at 37° C. for 20 minutes.
Antibodies that recognized CD-11a from the particular species (human, sheep, dog, rat, rabbit) (1:100 dilution) were used as positive controls. […] Cells were incubated at 4° C. for 30 minutes, then washed twice with 220 μl/well HBSS containing 0.05% NaN₃, resuspended in 200 μl/well HBSS and analyzed using the GUAVA EXPRESS™ protocol (Guava Technologies, Inc., Hayward Calif.).

T1 sequence (P20701 other isoform, or with tags, fused parts or gaps limits assumed, chain 1 of 2): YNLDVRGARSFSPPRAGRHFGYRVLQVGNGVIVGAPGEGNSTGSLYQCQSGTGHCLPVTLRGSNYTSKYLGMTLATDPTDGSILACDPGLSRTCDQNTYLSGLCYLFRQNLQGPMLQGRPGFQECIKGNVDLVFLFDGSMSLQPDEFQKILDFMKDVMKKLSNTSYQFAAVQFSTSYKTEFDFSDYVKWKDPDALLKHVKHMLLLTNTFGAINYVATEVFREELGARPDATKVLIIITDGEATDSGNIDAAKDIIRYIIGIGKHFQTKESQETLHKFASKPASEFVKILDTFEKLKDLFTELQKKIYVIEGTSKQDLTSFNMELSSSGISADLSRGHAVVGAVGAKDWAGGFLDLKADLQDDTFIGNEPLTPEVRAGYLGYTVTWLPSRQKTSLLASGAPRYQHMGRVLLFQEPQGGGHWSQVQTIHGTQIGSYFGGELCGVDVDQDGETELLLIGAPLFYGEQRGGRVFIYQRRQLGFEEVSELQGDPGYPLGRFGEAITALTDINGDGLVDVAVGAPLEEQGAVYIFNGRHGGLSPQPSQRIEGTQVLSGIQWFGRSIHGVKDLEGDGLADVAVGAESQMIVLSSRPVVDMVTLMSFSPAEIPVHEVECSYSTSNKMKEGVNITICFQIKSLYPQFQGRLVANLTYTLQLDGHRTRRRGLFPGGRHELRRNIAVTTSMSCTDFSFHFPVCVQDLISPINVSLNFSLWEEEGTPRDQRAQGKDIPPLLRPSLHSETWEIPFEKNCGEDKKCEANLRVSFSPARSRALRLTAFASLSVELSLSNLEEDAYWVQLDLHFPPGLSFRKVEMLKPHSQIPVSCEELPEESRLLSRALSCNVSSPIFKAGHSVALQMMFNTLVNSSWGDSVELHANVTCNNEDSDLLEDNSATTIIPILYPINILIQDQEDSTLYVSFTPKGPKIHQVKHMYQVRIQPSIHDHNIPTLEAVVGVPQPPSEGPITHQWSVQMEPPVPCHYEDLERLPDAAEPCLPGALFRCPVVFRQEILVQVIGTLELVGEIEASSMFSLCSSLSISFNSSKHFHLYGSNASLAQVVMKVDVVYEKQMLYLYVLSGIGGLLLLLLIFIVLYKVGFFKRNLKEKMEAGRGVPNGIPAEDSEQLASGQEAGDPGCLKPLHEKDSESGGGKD
T1 sequence (P05107 other isoform, or with tags, fused parts or gaps limits assumed, chain 2 of 2): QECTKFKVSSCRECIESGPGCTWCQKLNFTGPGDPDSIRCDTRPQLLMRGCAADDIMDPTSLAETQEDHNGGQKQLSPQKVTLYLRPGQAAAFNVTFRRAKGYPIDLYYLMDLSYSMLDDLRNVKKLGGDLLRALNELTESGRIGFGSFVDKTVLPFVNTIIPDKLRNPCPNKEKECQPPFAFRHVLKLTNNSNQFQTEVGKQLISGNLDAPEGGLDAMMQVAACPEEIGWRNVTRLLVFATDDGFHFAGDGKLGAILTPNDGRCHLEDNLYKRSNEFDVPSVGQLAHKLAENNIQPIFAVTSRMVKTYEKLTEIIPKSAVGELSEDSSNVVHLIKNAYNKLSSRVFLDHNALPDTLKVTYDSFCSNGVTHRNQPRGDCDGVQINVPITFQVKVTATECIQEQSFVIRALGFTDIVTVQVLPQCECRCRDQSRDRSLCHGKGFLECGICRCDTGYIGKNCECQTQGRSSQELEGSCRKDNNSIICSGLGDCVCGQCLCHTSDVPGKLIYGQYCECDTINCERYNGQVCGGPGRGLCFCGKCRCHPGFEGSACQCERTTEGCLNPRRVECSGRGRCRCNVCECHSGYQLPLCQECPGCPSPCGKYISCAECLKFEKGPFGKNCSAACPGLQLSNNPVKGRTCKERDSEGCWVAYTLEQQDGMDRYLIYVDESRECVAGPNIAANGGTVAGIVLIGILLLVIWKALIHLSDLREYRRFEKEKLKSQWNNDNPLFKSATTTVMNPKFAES
T2 sequence (P24063 24-1162, chain 1 of 2): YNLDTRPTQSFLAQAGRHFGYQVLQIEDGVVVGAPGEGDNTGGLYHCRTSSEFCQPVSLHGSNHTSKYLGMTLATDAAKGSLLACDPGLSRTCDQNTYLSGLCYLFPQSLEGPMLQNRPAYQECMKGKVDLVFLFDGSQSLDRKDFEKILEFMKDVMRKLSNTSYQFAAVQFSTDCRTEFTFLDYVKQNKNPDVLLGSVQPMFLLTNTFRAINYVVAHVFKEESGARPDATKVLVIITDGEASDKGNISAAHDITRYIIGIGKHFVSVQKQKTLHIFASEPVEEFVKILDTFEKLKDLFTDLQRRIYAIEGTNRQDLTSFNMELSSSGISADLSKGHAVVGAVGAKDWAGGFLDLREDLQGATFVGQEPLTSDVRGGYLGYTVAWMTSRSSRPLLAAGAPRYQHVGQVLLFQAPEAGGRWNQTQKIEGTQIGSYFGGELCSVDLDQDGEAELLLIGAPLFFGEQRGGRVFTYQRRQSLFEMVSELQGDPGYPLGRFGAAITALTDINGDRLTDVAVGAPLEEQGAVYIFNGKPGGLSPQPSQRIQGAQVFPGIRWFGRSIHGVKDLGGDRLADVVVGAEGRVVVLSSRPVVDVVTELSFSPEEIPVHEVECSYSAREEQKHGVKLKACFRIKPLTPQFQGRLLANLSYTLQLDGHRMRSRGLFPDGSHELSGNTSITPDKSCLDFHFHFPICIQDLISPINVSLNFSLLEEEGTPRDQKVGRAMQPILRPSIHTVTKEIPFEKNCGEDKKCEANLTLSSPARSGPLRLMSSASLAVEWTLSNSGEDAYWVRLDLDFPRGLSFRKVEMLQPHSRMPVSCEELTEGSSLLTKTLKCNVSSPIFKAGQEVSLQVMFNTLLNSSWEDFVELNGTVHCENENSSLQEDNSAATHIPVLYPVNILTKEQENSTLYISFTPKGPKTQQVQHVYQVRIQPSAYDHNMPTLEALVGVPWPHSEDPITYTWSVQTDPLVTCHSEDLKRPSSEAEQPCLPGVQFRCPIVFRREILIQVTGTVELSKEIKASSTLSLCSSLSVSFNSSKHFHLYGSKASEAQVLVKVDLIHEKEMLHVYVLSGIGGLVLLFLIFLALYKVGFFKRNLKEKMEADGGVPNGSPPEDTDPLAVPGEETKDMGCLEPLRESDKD
T2 sequence (P11835 24-771, chain 2 of 2): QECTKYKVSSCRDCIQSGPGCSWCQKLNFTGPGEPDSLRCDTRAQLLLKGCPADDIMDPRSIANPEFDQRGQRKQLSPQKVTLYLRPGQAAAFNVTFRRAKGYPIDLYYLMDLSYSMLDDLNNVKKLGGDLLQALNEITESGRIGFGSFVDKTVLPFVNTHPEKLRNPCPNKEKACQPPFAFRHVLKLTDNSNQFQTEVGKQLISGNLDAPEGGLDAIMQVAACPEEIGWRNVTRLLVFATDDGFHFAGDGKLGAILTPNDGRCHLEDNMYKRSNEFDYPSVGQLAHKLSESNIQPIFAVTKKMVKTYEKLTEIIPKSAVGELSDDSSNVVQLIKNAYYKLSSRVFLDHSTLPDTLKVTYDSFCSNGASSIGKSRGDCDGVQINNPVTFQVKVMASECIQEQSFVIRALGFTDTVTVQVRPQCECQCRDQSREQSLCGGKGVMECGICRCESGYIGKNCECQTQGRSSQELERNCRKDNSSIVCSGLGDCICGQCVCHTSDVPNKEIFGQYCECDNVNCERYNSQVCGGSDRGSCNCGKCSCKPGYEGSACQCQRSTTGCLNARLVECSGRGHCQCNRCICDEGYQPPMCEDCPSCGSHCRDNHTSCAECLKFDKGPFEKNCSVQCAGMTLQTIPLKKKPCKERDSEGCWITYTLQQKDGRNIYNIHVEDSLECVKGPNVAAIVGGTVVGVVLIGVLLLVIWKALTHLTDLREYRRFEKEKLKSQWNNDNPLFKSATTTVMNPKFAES

B1: D2-57 IgG1 (antibody, V domains shown)
VH: EVQLLESGGGLVQPGGSLRLSCAASGFTFSRYVMWWVRQAPGKGLEWVSYIWPSGGNTYYADSVKGRFTISRDNSKNTLYLQMNSLRAEDTAVYYCASSYDFWSNAFDIWGQGTMVTVSS
VL: DIQMTQSPSSLSASVGDRVTITCRASQSIGSYLNWYQQKTGKAPKALIYAASSLQSGVPSRFSGSGSGTDFTLTISSLQLEDFATYYCQQSYSTPSFGQGTKVEIKR
For B1, the IC50 [1] was 0.54 nM.

B2: DX-2001 (germlined variant of D2-57, IgG4) (antibody, V domains shown)
VH: EVQLLESGGGLVQPGGSLRLSCAASGFTFSRYVMWWVRQAPGKGLEWVSYIWPSGGNTYYADSVKGRFTISRDNSKNTLYLQMNSLRAEDTAVYYCASSYDFWSNAFDIWGQGTMVTVSS
VL: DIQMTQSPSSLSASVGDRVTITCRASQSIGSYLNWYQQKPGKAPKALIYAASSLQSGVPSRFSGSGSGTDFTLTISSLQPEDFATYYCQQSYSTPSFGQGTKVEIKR
B2: no binding [2]; no binding (tested: 10 µg/ml) (rabbit LFA-1 on PBMCs).
